Experimental findings from article doi:10.1101/2024.07.22.604500 are described below.

Assay [1] has as its target H1.0–K63-Ub2 chromatosome (CH2) (UniProt P07305).
Assay [2] addresses H1.0–K63-Ub3 chromatosome (CH3) (UniProt P07305).
The target in assay [3] is H1.0–Ub chromatosome (CH1) (UniProt P07305).
Assay [4] addresses unmodified H1.0-containing chromatosome (CH0) (UniProt P07305).

“RNF168^1–193 (from UniProt Q8IYW5 1-193) (domain or fragment)”: the H2A conversion in the in vitro ubiquitylation assay, 5 and 10 min (13% and 25%) in assay [1] came to 25%. In assay [2], this substance gave an H2A conversion in the in vitro ubiquitylation assay, 5 and 10 min (28% and 48%) of 48%. In assay [3], this substance showed an H2A conversion in the in vitro ubiquitylation assay, 5 and 10 min (2% and 3%) of 3%. The H2A conversion in the in vitro ubiquitylation assay, 5 and 10 min (3% and 5%) in assay [4] worked out at 5%.
